B1: scFv; the commonest letter at each place (parent)
chain 1: EVKLDETGGGLVQPGRPMKLSCVASGFTFSDYWMNWVRQSPEKGLEWVAQIRNKPYNYETYYSDSVKGRFTISRDDSKSSVYLQMNNLRVEDMGIYYCTGSYYGMDYWGQGTSVTVS
chain 2: DVVMTQTPLSLPVSLGDQASISCRSSQSLVHSNGNTYLRWYLQKPGQSPKVLIYKVSNRFSGVPDRFSGSGSGTDFTLKISRVEAEDLGVYFCSQSTHVPWTFGGGTKLEIK

Experiments:
[1] = variants of: B1; experiment: Kd (Tite-Seq); conditions: with fluorescein; format: scFv 4-4-20, heavy + light
[2] = variants of: B1; experiment: yeast surface expression (ratio to wild type); higher = more expressed; conditions: format: scFv 4-4-20, heavy + light

Row | Variant | Kd [1] | yeast surface expression [2]
1 | chain 1 M105T Y107R | ≥ 10 µM | 0.527
2 | chain 1 M105L Y107V | 1.72 µM | 1.08
3 | chain 1 M105L Y107I | 2.34 µM | 1.09
4 | chain 1 F29C V37E | 6.96 µM | 0.973
5 | chain 1 W36N | ≥ 10 µM | 0.978
6 | chain 1 W36Y | 0.00532 µM | 0.923
7 | chain 1 W36S V37D | ≥ 10 µM | 1.34
8 | chain 1 T28A D31C N35A | ≥ 10 µM | 0.411
9 | chain 1 F29I W33D M34W | ≥ 10 µM | 0.719
10 | chain 1 F29Q Y32C | 9.5 µM | 1
11 | chain 1 D106W W108F | ≥ 10 µM | 0.225
12 | chain 1 T28F F29H | ≥ 10 µM | 0.638
13 | chain 1 G100M Y102V | ≥ 10 µM | 0.856
14 | chain 1 Y107C W108V | 0.00468 µM | 0.304
15 | chain 1 Y103D M105Y | ≥ 10 µM | 1.03
16 | chain 1 G100H D106F | 9.5 µM | 0.752
17 | chain 1 G104T G109D | ≥ 10 µM | 0.235
18 | chain 1 G100Q S101Q | ≥ 10 µM | 0.263
19 | chain 1 G104T D106Y | ≥ 10 µM | 0.331
20 | chain 1 S30P N35L | ≥ 10 µM | 0.652
21 | chain 1 S30E D31S | 0.00239 µM | 0.987
22 | chain 1 G100D D106W | ≥ 10 µM | 0.254
23 | chain 1 F29E D31G N35R | ≥ 10 µM | 0.621

Row | Variant | Kd [1] | yeast surface expression [2]
24 | chain 1 W33S N35I | ≥ 10 µM | 0.495
25 | chain 1 G100L G104S | ≥ 10 µM | 0.51
26 | chain 1 T28F W36H | ≥ 10 µM | 0.598
27 | chain 1 F29H W36D | ≥ 10 µM | 0.486
28 | chain 1 Y102M D106T | ≥ 10 µM | 1.07
29 | chain 1 S101N G109N | ≥ 10 µM | 0.267
30 | chain 1 Y102A Y103K G109C | ≥ 10 µM | 0.237
31 | chain 1 Y32I M34F | 5.66 µM | 0.871
32 | chain 1 S101H Y107R | ≥ 10 µM | 0.581
33 | chain 1 S101D Y107S | ≥ 10 µM | 0.672
34 | chain 1 D106A Y107F | 1.91 µM | 0.508
35 | chain 1 F29I Y32E | ≥ 10 µM | 0.916
36 | chain 1 M105D G109F | ≥ 10 µM | 0.218
37 | chain 1 G100R | ≥ 10 µM | 0.624
38 | chain 1 M34G N35P | 5.37 µM | 0.778
39 | chain 1 M34G N35Q | ≥ 10 µM | 0.503
40 | chain 1 D106P W108M | ≥ 10 µM | 0.714
41 | chain 1 W108I | ≤ 0.000316 µM | 0.882
42 | chain 1 W108K | 0.0221 µM | 0.504
43 | chain 1 W108T | 0.000399 µM | 0.775
44 | chain 1 Y102F W108T | 0.000479 µM | 0.854
45 | chain 1 S101N G104N | ≥ 10 µM | 0.806
46 | chain 1 S30F Y32H | 0.0507 µM | 0.679

Row | Variant | Kd [1] | yeast surface expression [2]
47 | chain 1 S30F Y32Q | ≥ 10 µM | 0.653
48 | chain 1 G100E G109Y | ≥ 10 µM | 0.199
49 | chain 1 S101Q D106N | ≥ 10 µM | 0.555
50 | chain 1 S30H V37F | 0.0562 µM | 0.754
51 | chain 1 M34S W36Q | ≥ 10 µM | 0.147
52 | chain 1 S30R W36G | ≥ 10 µM | 0.171
53 | chain 1 T28S Y32F W36H | ≥ 10 µM | 0.533
54 | chain 1 Y103S G109T | ≥ 10 µM | 0.469
55 | chain 1 Y32C N35M | ≥ 10 µM | 0.536
56 | chain 1 S30R Y32W | ≥ 10 µM | 0.811
57 | chain 1 Y102V G104N | ≥ 10 µM | 0.817
58 | chain 1 M34P V37T | ≥ 10 µM | 0.323
59 | chain 1 G100T G104V D106E | ≥ 10 µM | 0.398
60 | chain 1 G104F W108T | ≥ 10 µM | 0.194
61 | chain 1 Y102K M105N | 0.02 µM | 0.916
62 | chain 1 D106N Y107I G109S | 0.136 µM | 0.679
63 | chain 1 Y102V W108G | ≥ 10 µM | 0.298
64 | chain 1 T28A W33R M34S | ≥ 10 µM | 1.12
65 | chain 1 Y103F G109F | ≥ 10 µM | 0.237
66 | chain 1 Y32G V37P | ≥ 10 µM | 0.972
67 | chain 1 G100Y D106I | ≥ 10 µM | 0.398
68 | chain 1 S101I Y102M | ≥ 10 µM | 0.621
69 | chain 1 F29N W36H | ≥ 10 µM | 0.279

Row | Variant | Kd [1] | yeast surface expression [2]
70 | chain 1 T28L F29N | ≥ 10 µM | 0.821
71 | chain 1 F29M Y32M | 0.0171 µM | 1.21
72 | chain 1 Y102R Y107N | ≥ 10 µM | 0.81
73 | chain 1 G100S G104W | ≥ 10 µM | 0.425
74 | chain 1 S101R W108H | ≥ 10 µM | 0.261
75 | chain 1 S101Y Y103N D106L | ≥ 10 µM | 0.957
76 | chain 1 D31V Y32L | 0.972 µM | 0.584
77 | chain 1 D31R W36N | ≥ 10 µM | 1.06
78 | chain 1 Y32K V37T | ≥ 10 µM | 0.623
79 | chain 1 S30C Y32V | ≥ 10 µM | 0.7
80 | chain 1 T28Q N35P | 0.832 µM | 0.622
81 | chain 1 Y103T M105H | ≥ 10 µM | 0.849
82 | chain 1 D31S M34G | ≥ 10 µM | 0.543
83 | chain 1 Y103P D106T W108C | ≥ 10 µM | 0.258
84 | chain 1 Y103C M105I | 6.27 µM | 0.621
85 | chain 1 Y102V M105Q | 1.63 µM | 0.736
86 | chain 1 Y102V M105N | 0.522 µM | 1.01
87 | chain 1 Y102G G109K | ≥ 10 µM | 0.336
88 | chain 1 F29T M34K | ≥ 10 µM | 0.35
89 | chain 1 S101P W108T | ≥ 10 µM | 0.168
90 | chain 1 G100A M105Q | 0.0245 µM | 1.15
91 | chain 1 T28W F29P S30F | ≥ 10 µM | 0.601
92 | chain 1 Y103A D106I W108P | ≥ 10 µM | 0.344

Row | Variant | Kd [1] | yeast surface expression [2]
93 | chain 1 F29K W33R | 0.0692 µM | 0.639
94 | chain 1 S30G D31H S101A Y102S D106E W108L | 0.000351 µM | 0.844
95 | chain 1 G100D Y107V | ≥ 10 µM | 0.406
96 | chain 1 S101I Y107Q | ≥ 10 µM | 0.376
97 | chain 1 Y102H Y107K | ≥ 10 µM | 1.05
98 | chain 1 D106I W108R | ≥ 10 µM | 0.422
99 | chain 1 G100C Y107S | 2.88 µM | 0.64
100 | chain 1 S101A Y107E W108G | ≥ 10 µM | 0.353
101 | chain 1 G100T S101D | ≥ 10 µM | 0.83
102 | chain 1 F29Q S30C N35I | ≥ 10 µM | 0.232
103 | chain 1 D31A N35T V37S | ≥ 10 µM | 0.281
104 | chain 1 T28H D31K | 0.00606 µM | 0.589
105 | chain 1 T28D M34G | 3.94 µM | 0.865
106 | chain 1 W33Y | ≥ 10 µM | 0.976
107 | chain 1 S101I W108E | ≥ 10 µM | 0.21
108 | chain 1 W33E W36L | ≥ 10 µM | 0.622
109 | chain 1 Y32T W36R | ≥ 10 µM | 0.193
110 | chain 1 S30H W33A | ≥ 10 µM | 0.733
111 | chain 1 S101K Y103S | ≥ 10 µM | 0.461
112 | chain 1 M105R W108A | 7.33 µM | 0.498
113 | chain 1 D31C W33C | ≥ 10 µM | 0.579
114 | chain 1 Y32H N35E | ≥ 10 µM | 0.518
115 | chain 1 Y32H N35D | ≥ 10 µM | 0.772

Source: the FLAb antibody collection (doi:10.7554/elife.23156)
